Results: the supplement of paper PMC12042874
± gives the uncertainty stated by the source.

assay: amyloid nucleation score (Sup35N fusion, yeast selection) (log enrichment); library NNK3; higher = more nucleation; inactive = no reads after selection
How it was run: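 In psi-negative yeast, Sup35N fusions carrying peptides of 20 random codons were induced with 100 μM copper sulfate for 24 hours. The cells then grew 7 days at 30°C on medium lacking adenine and uracil, and plasmid inserts from input and output were Illumina-sequenced, excluding sequences with under 100 input reads. Nucleation score is the DiMSum log enrichment of output over input reads, centred on the mode score of non-aggregating sequences.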

Substance | amyloid nucleation score
LNPVRSYSKNNIYLLTMLAL | inactive
CWYQPPNDNVYFMMILYI | 1.97 ± 0.084
LIKSSRLCLNRWEWAAGSGM | inactive
VWVTVRCLNYRPSYMPYRTR | 0.651 ± 0.32
YFVFKIRKDVELLVYI | inactive
VYMLYQFSCPGVDNWVCTES | inactive
DFCMVVHCIKFMGLCRGGDV | 1.02 ± 0.17
RRVSHLFLRTCCPSWTYYHL | inactive
LSGANYLLIRNEGM | inactive
EYGSATVVWNHYFSPWVRFF | -0.213 ± 0.9
SARYWESDRLALIRCHLELR | inactive
PFVSVSVCTSLKGCSR | 1.8 ± 0.1
SAIYLYKYCPSNIITRTLVP | inactive
FDRDWDMFFVRIVSQCGMLW | inactive
GWKLSSVGNKRDCSSMHVDR | 0.101 ± 0.19
LLLRLLAWYMMVS | inactive
WMRVSCDTRGYSSFQAY | -0.538 ± 0.75
GNWQCFTEGRTPCYFCCITT | inactive
TCHLPAQSLLFIRCSTKAGV | inactive
KFNVFPIHGALWTCSVSAYH | inactive
SPLRRCMCSFDDAKWWMCGE | 0.803 ± 0.25
HFNCRYNAGCDGVLVFDVLL | inactive
RGDVWLELKGLFAIFCYSEL | 2.96 ± 0.062

Substance | amyloid nucleation score
RFCAFERG | inactive
LSFLTHCRHSWVRVRDILWA | inactive
VLRVLLGFDKFTATISTPDG | 0.323 ± 0.28
EVCNVVTCGNLFKVTIYNSQ | 2.43 ± 0.068
LWYSCLVSRSSIVSHGWVGL | inactive
CRLELPMGSTTDDDRGQKVD | -0.014 ± 0.53
DQECRA | inactive
KYFRARYHSPSEWLWSMIDW | inactive
YYSSWLFTGMVGSYTFTALC | inactive
LSLLFALLAFEGVRASLSWG | inactive
YFINKMILIDPL | inactive
CWFKLMLASMIKENTLSTYG | inactive
MVCISL | inactive
SIGNAVYMIVGITGVRRRIY | inactive
LFEGDQDGMRVCSHHMVFMI | inactive
ACYAAQCWSNF | inactive
RRDSDIDRALSLGYASRTTK | inactive
YPHREQVRRSL | inactive
VRFKRVYCSG | inactive
HQWYG | inactive
HRLTCELFTWMPAEVCVWAD | inactive
LWMCLLMRRR | inactive
LSYFSLLGFRYSRGVMGYQM | inactive

Substance | amyloid nucleation score
VAFDIINRQNIINEWGCWID | inactive
VEHHDFSRSSSAYTRVL | inactive
SCGACLKEGRSG | inactive
LGFSVYSLA | inactive
LYLAMRENMWFEPEVNGCYG | inactive
YVVAGS | inactive
AVVPAFDLLWRNRLITSMTS | inactive
YIGIHLTSFRSTSSYYDRVL | inactive
IFSMMLF | inactive
KASLPNR | inactive
SNPGSALDIMGTNQIYPSQH | inactive
FLSDYGSC | inactive
FLSLIKM | 0.39 ± 0.2
SRRNTFAVGNFNSVLLN | inactive
FVLVWFLRLFDL | inactive
TIASVKLEFALPPSHLPLGV | inactive
TEPIWWEFGCKYHGYISARS | inactive
IATIVCYRLDGYHVLSYAHT | inactive
PFFDFSDINITEPE | -0.306 ± 0.71
IRSAVVV | -0.53 ± 1.8
IFPFFVVFGFDTYAGI | inactive
TWCSIMDLLVQLRVRNLFGK | inactive
QSLSVEH | inactive

Substance | amyloid nucleation score
CVCPDNDSPCDLGWVRRGNR | inactive
SCWRNLYSFLRKGSYSRCM | inactive
VCYNLCRKIPDSLSKIPDRR | inactive
DFSFSIRVGSSALGVSKNTE | 1.31 ± 0.093
NWIYYTMWSL | 0.581 ± 0.17
WTIAVMVSVGKYMTGTAT | inactive
FRMASS | inactive
LFFYYMNSDLVR | inactive
ISCSKLTR | inactive
CLATN | inactive
ISHFTARFVSPPMQWLRTCF | inactive
AIKYILRAALNLNSSSTELE | inactive
IIHLENMPICQGALIDGLAL | inactive
LIFTTTRSLFTALPGFEYKD | inactive
LSVMDGTSYAGCELKNVEGW | inactive
QDTLVPYMFKQITVYVYGLA | inactive
SSMGVVSVRAN | inactive
VKFIYRLEQNEDSAQNSRMG | inactive
CLNHQASMVSTAPVEFFRFL | inactive
SKTPLCMNYFL | inactive
IYSWTGLSTTLKFLGMSLLL | -0.218 ± 0.71
SFSRPVHSWAGHY | inactive
RFSWWRW | 1.24 ± 0.14

Substance | amyloid nucleation score
HASSWFYWRIFASGLNSDR | inactive
LFVIVMSFLFGWFFYRNNYA | 1.84 ± 0.099
CKTGPEDTC | inactive
VSHNSCGQTAESLNNFKTWS | inactive
FCCLEWNFIFNTSGHVSNNV | 3.31 ± 0.079
SNVVYMKYRMAVLVTLGICG | inactive
CNMPGLVDDFLCHGICNNVV | inactive
HAYSWVLFAVMSLSRLPTWN | inactive
VVRYDEGVVLNSRFLLSPGW | inactive
ELNRDDCEGSSATPQRDFNV | inactive
TESPNYLYRI | inactive
YRLQSLNPPISPVNHTNCSS | inactive
YCSIGLLCTSCIASVGIWVI | inactive
YKANFMGFSIYKRVGTRVWQ | 0.15 ± 0.75
GSICFNPTVWLVSRYRCS | 1.19 ± 0.12
YTSGLVNFVVMDPGL | inactive
YYLCVVPLRLLGRCASWSFG | inactive
NVMIDDVLARYYRVRRGLVG | inactive
YFSQVGRDCMFR | inactive
RLHTMWTYP | inactive
GRTWFKYPHSDSGCSFWLTA | inactive
FNVTGFSIIGKFIHDWFFLL | inactive
YTCNSWILDANNLANEPVSK | inactive

Substance | amyloid nucleation score
ELVCVA | inactive
CLRLGLIMDTKK | inactive
PITDFTSNISNSRDPLQVRG | inactive
VFKWWM | 1.2 ± 0.16
GDFLNCAFLTKIFEHQNNFW | 1.85 ± 0.077
GRIQPCISRAAGPDAGVMGL | inactive
GKSSKDLHIFIMIRVWHYLT | inactive
LNPLPQRLYSPCSLKFCNDG | inactive
KISMSRVVFDNSSTGTIEGQ | inactive
WAFHFGCCNDGMVR | inactive
PWGEILINGR | inactive
LFISFIVLRKALFTYTCLCF | inactive
GYFARLR | inactive
SSSTKGFVNVDKSLASW | inactive
MSCRARRTNLF | inactive
SGSLGFYTP | inactive
LSTENLLVYMWDRLNSILKG | inactive
RYCNASY | inactive
SSFEFVE | 0.698 ± 0.22
EKECRTWHHVDGSLVESCYY | inactive
EYADTEKVASNVLFFSRLAG | inactive
GLLLVRM | inactive
PGSYGHGGWNTEFGCQVAIW | -0.593 ± 1.9

Substance | amyloid nucleation score
PETMCLGAKRFITGRETREL | 0.588 ± 0.14
LDDEVEQSTAASDIRLLSTL | inactive
FFLIDYIYWVGIFNYSLILV | inactive
DDGSLDLMTKTA | inactive
IHHKLVDL | inactive
LNSFQHGY | inactive
GGKAISNFEFLLILGPY | inactive
MNWFELFAHCLLKQFQRTLQ | inactive
YRKLVVSPLGILPKYRTPCC | inactive
PFTTSYPDVQLTMKFNSWRN | 1.56 ± 0.13
NRVMSVLF | inactive
NRAVHKSRWHRMRTFKDERR | inactive
SLVIAQARANRNILLLTVAR | inactive
GSFMDHKTR | -0.382 ± 1.1
SYDFIMVLPHEDRIDIVQQF | inactive
HMLYLNLFGIIGIIFCDWNM | inactive
CHMWSEHSTTLMYYSKKY | 0.199 ± 0.41
SLLFTGHLCLYHTLVCCVFI | 1.28 ± 0.11
LSILHYSLNCLYHRSYMCIL | inactive
RYFVT | inactive
ITCANALLCDGSRFSM | 0.741 ± 0.16
MLWEVDLNVRTSMADT | inactive
